Laboratory results as given in publication PMC11267001, “RhoG facilitates a conformational transition in the guanine nucleotide exchange factor complex DOCK5/ELMO1 to an open state” (The Journal of Biological Chemistry, 2024).

Assays:
[1] = target: C-terminal truncated DOCK5 (DOCK5^ΔC, residues 1-1642) (human, UniProt Q9H7D0 1-1642); test: cryo-EM structure; DOCK5^ΔC/ELMO1^FL/Rac1^G15A (0.9 μM) mixed with RhoG^Q61L (15 μM), cross-linked with 1 mM BS3, SEC; 20 mM HEPES-NaOH pH 8.0, 300 mM NaCl, 1 mM TCEP, 0.06% digitonin; details: both partners purified
[2] = target: human full-length ELMO1 (ELMO1^FL, residues 1-727) (human, UniProt Q92556 1-727); test: as above; details: both partners purified

B1: constitutively active RhoG^Q61L mutant (GTPase domain, residues 1-184) (domain or fragment)
chain: not shown
B1: binds [1]; binds [2].
